We go through 1 molecule from patent publication US10314894B2, “Treatment of cardio-renal disease using PCSK6” (THE CLEVELAND CLINIC FOUNDATION, priority 2014, dated 2019).

One test concerns the target T1, corin variant Q568P (Homo sapiens, UniProt Q9Y5Q5, Q568P).
T1 construct: expressed in transfected cells; host or cells: HEK293
T1 sequence (Q9Y5Q5 1-1042 Q568P): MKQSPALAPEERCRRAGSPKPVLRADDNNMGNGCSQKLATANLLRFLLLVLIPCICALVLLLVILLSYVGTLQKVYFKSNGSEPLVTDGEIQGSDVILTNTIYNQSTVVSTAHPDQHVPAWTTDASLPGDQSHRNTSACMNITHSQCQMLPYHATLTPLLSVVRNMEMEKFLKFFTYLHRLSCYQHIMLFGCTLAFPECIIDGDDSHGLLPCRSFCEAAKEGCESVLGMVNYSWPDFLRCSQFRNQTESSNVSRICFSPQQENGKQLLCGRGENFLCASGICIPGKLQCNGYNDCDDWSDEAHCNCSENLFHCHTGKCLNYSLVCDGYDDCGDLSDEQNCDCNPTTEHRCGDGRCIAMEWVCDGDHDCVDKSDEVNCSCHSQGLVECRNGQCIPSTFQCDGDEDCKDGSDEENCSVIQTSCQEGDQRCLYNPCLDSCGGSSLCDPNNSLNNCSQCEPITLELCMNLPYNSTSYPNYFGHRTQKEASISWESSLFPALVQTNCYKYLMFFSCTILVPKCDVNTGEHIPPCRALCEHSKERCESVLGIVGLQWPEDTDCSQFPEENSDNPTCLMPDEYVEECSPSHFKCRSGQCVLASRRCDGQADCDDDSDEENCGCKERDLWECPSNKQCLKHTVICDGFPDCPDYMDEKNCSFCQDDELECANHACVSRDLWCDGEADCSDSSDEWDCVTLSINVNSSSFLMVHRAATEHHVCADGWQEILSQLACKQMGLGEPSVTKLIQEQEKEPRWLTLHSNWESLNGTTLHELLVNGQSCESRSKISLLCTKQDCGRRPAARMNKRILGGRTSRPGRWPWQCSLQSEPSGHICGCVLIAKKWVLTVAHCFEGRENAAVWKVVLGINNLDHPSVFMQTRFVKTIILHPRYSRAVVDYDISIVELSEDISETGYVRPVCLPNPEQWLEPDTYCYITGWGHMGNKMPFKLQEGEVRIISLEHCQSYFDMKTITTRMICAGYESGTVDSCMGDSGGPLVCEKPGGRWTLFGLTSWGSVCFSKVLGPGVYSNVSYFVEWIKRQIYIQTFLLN
The experiment in a line: PCSK6-mediated corin activation in HEK293 cells, corin variant Q568P. Type of test: cell-based. Particulars: Western. An excerpt:
(§1) Plasmids expressing human corin WT and mutants R801A, S985A, T555I, Q568P, T555I/Q568P, K317E, S472G and R539C were reported previously. Dong, N. et al., J Biol Chem 289, 17909-17916 (2014); Knappe et al., J Biol Chem 278, 52363-52370 (2003); Wu et al., J Biol Chem 277, 16900-16905. (2002). Plasmids expressing human PCSK1-9 were made by cloning respective cDNAs into pcNDA3.1 vector. Recombinant corin and PCSK proteins encoded by these plasmids contained a C-terminal V5 or flag tag for protein detection in Western blotting.
(§2) HEK293 and HL-1 cells were transfected with corin or PCSK6 expression plasmids. After 48-72 h, cells were lysed in a buffer containing 25 mM Tris-HCl, pH 7.4, 150 mM NaCl, 1 mM EDTA, 1% (v/v) NP-40, and 1% (v/v) protease inhibitor cocktail. Recombinant corin and PCSK6 proteins were immunoprecipitated with an anti-V5 or anti-flag antibody. Western blotting was carried out to analyze corin expression and activation or PCSK6 expression with or without reducing agents. Percentage of corin activation (corin-p vs. corin fragments) was quantified by densitometric analysis of Western blots.

A further test has as its target T2, corin WT (Homo sapiens, UniProt Q9Y5Q5).
T2 construct: expressed in transfected cells; host or cells: HEK293
T2 sequence (Q9Y5Q5 1-1042): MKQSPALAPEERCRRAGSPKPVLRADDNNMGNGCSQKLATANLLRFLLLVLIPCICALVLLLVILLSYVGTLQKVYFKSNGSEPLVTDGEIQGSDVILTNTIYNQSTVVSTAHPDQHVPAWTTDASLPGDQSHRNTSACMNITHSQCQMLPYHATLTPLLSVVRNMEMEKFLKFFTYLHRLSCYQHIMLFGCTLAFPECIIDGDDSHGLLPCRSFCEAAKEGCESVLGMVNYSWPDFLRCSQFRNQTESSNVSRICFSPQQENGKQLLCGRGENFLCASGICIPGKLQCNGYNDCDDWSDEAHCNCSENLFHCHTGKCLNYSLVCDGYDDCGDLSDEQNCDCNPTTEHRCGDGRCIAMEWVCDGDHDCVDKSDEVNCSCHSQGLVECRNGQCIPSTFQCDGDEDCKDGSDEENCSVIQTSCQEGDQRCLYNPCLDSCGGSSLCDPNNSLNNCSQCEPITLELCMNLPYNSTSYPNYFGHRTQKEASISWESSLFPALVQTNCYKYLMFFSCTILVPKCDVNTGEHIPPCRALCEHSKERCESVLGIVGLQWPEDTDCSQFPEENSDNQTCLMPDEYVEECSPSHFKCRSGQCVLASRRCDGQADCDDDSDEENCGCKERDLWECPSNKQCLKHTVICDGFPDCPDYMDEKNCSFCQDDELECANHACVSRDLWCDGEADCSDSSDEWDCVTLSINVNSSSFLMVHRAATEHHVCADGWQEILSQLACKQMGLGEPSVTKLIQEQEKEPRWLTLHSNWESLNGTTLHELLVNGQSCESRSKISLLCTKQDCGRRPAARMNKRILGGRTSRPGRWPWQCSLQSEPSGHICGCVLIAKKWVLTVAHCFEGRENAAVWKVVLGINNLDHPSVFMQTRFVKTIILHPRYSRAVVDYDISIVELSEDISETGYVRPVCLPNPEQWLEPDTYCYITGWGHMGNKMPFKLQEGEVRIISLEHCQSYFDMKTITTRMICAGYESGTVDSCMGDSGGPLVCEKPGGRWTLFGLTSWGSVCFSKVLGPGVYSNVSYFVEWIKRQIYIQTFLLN
The experiment in a line: PCSK6-mediated corin activation in HEK293 cells, corin WT. Particulars: Western. Type of test: cell-based.
Excerpt: as §1, §2

B1: proprotein convertase subtilisin/kexin-6 (protein, listed as Homo sapiens)
chain: MPPRAPPAPGPRPPPRAAAATDTAAGAGGAGGAGGAGGPGFRPLAPRPWRWLLLLALPAACSAPPPRPVYTNHWAVQVLGGPAEADRVAAAHGYLNLGQIGNLEDYYHFYHSKTFKRSTLSSRGPHTFLRMDPQVKWLQQQEVKRRVKRQVRSDPQALYFNDPIWSNMWYLHCGDKNSRCRSEMNVQAAWKRGYTGKNVVVTILDDGIERNHPDLAPNYDSYASYDVNGNDYDPSPRYDASNENKHGTRCAGEVAASANNSYCIVGIAYNAKIGGIRMLDGDVTDVVEAKSLGIRPNYIDIYSASWGPDDDGKTVDGPGRLAKQAFEYGIKKGRQGLGSIFVWASGNGGREGDYCSCDGYTNSIYTISVSSATENGYKPWYLEECASTLATTYSSGAFYERKIVTTDLRQRCTDGHTGTSVSAPMVAGIIALALEANSQLTWRDVQHLLVKTSRPAHLKASDWKVNGAGHKVSHFYGFGLVDAEALVVEAKKWTAVPSQHMCVAASDKRPRSIPLVQVLRTTALTSACAEHSDQRVVYLEHVVVRTSISHPRRGDLQIYLVSPSGTKSQLLAKRLLDLSNEGFTNWEFMTVHCWGEKAEGQWTLEIQDLPSQVRNPEKQGKLKEWSLILYGTAEHPYHTFSAHQSRSRMLELSAPELEPPKAALSPSQVEVPEDEEDYTAQSTPGSANILQTSVCHPECGDKGCDGPNADQCLNCVHFSLGSVKTSRKCVSVCPLGYFGDTAARRCRRCHKGCETCSSRAATQCLSCRRGFYHHQEMNTCVTLCPAGFYADESQKNCLKCHPSCKKCVDEPEKCTVCKEGFSLARGSCIPDCEPGTYFDSELIRCGECHHTCGTCVGPGREECIHCAKNFHFHDWKCVPACGEGFYPEEMPGLPHKVCRRCDENCLSCAGSSRNCSRCKTGFTQLGTSCITNHTCSNADETFCEMVKSNRLCERKLFIQFCCRTCLLAG
modifications: C-terminal FLAG tag
Turning to B1, the PCSK6-mediated activation cleavage result in the test with corin variant Q568P and in the test with corin WT was “detected” each time.
